Assay results from PMC3266974 (Journal of Medicinal Chemistry, 2012).

Molecular target: T1, bovine pancreas CPA (Bos taurus, UniProt P00730)
T1 sequence (P00730 111-419): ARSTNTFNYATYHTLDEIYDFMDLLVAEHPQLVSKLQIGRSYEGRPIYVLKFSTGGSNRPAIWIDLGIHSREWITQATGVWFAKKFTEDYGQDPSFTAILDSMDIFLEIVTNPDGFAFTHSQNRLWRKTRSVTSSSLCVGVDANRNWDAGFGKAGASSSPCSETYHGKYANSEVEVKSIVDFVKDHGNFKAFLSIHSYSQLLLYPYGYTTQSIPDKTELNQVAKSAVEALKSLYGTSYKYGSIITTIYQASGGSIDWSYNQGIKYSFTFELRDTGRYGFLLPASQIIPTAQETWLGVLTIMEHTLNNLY
Test: Inhibition of CPA, colorimetric substrate N-
Type: biochemical
Conditions: tested in duplicate, na = not active at 30 μM

IC50: 4.5 ± 0.9 µM
Substance: Peptide 6: linear version of namalide (IFKF; not fully specified; Linear (uncyclized) namalide)
